Measured values as given in PMC8754201, “Structures of Two Human Astrovirus Capsid/Neutralizing Antibody Complexes Reveal Distinct Epitopes and Inhibition of Virus Attachment to Cells” (Journal of Virology, 2021).

Legend:
Conditions in all cases: both partners purified
[1] = biological target: T1, HAstV8 capsid spike (Spike 8) fused to a 10x histidine tag (Human astrovirus 8 (HAstV-8), Q9IFX1, UniProt Q9IFX1); test: BLI; His-tagged Spike 8 (0.5 ug/ml) loaded on Anti-Penta-His (HIS1K) biosensors; scFv as analyte in six 1:2 serial dilutions (from 80 nM scFv 3E8 or 20 nM scFv 2D9); PBS pH 7.4, 2% BSA, 0.09% Tween 20; 22 C; global 1:1 fit; mean of triplicate assays
T1 construct: HAstV serotype 8 capsid spike protein, amino acids 429 to 647 of the capsid protein (UniProtKB entry Q9IFX1); A thrombin cleavage site stands between the spike and the C-terminal 10-histidine tag (pET52b); Captured on Anti-Penta-His sensors by the tag; also called His-tagged Spike 8; HAstV serotype 8 capsid spike protein; not shown: His10, C-terminal, kept

[2] = biological target: T2, HAstV8 capsid spike (Spike 8), purification tag removed by thrombin (human astrovirus serotype 8 (HAstV8), UniProt Q9IFX1); test: SEC; 3 molar excess scFv 3E8 with Spike 8 overnight at 4 C, tags removed with thrombin; Superdex 200 in TBS pH 7.2; coeluted at apparent ~105 kDa against gel filtration standards; data not shown
T2 construct: HAstV serotype 8 capsid spike protein, amino acids 429 to 647 of the capsid protein (UniProtKB entry Q9IFX1); Same construct as m1 after thrombin digestion; residues of the thrombin site may remain at the C-terminus; source: tag removed with thrombin during complex formation; not shown: His10, C-terminal, cleaved

[3] = biological target: T2, HAstV8 capsid spike (Spike 8), …; test: SEC; 3.5 molar excess scFv 2D9 with Spike 8 overnight at 4 C, tags removed with thrombin; Superdex 200 in TBS pH 8.0; coeluted at apparent ~105 kDa against gel filtration standards; data not shown

T1 sequence (Q9IFX1 429-647, one chain of several): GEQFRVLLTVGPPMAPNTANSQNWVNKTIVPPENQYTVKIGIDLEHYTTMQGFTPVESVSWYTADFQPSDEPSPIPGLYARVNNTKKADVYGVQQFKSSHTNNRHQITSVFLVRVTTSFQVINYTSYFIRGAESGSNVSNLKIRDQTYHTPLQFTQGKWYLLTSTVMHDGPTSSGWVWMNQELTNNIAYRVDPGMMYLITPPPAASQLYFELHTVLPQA
T2 sequence (Q9IFX1 429-647): as the sequence (Q9IFX1 429-647, one chain of several) above

Binder | Kd [1] [nM] | other results
scFv 3E8 (single-chain variable fragment of mouse monoclonal antibody 3E8) (scFv, V domains shown, 3E8 kappa chain variable region; GGS(GGGGS)3 linker; 3E8 heavy chain variable region; A thrombin cleavage site stands between the scFv and the C-terminal Twin Strep-tag; source: CHO-S cells (electroporated), secreted, purified (StrepTrap HP)) VH: DVQLQESGPGLVKPSQSLSLTCSVTGYSITSGYYWNWIRQFPGNKLEWMGYISYDGSNNYNPSLKNRISITRDTSKNQFFLKLNSVTTEDTATYYCATFYDGYDYWGQGTTLTVSS VL: DIVMTQSHKFMSTSVGDRVSITCKASQDVSTAVAWYQQKPGQSPKLLIYWASTRHTGVPDRFTGSGSGTDYTLTISSVQAEDLALYYCQQHYSTPFTFGSGTKLEIK | 40 | –
scFv 3E8, purification tag removed by thrombin (scFv, V domains shown, 3E8 kappa chain variable region, as in m3; GGS(GGGGS)3 linker; 3E8 heavy chain variable region, as in m3; Same construct as m3 after thrombin digestion; source: CHO-S cells (electroporated), secreted, purified (StrepTrap HP); tag removed with thrombin during complex formation; not shown: Twin Strep-tag, C-terminal, cleaved) VH: DVQLQESGPGLVKPSQSLSLTCSVTGYSITSGYYWNWIRQFPGNKLEWMGYISYDGSNNYNPSLKNRISITRDTSKNQFFLKLNSVTTEDTATYYCATFYDGYDYWGQGTTLTVSS VL: DIVMTQSHKFMSTSVGDRVSITCKASQDVSTAVAWYQQKPGQSPKLLIYWASTRHTGVPDRFTGSGSGTDYTLTISSVQAEDLALYYCQQHYSTPFTFGSGTKLEIK | – | stoichiometry N [2]: 1 scFv per Spike 8 protomer (2:2 complex)
scFv 2D9 (single-chain variable fragment of mouse monoclonal antibody 2D9) (scFv, V domains shown, 2D9 kappa chain variable region; GGS(GGGGS)3 linker; 2D9 heavy chain variable region; A thrombin cleavage site stands between the scFv and the C-terminal Twin Strep-tag; source: D. melanogaster Schneider 2 (S2) cells, stably transfected, secreted, purified (StrepTrap HP)) VH: QVQLKQSGPGLVQPSQSLSITCTVSGFSLTSYGVHWVRQSPGKGLEWLGVIWSGGSTDYNAAFISRLSISKDNSKSQVFFKMNSLQANDTAIYYCARNSLLDAMDYWGQGTSVTVSS VL: SIVMTQTPKFLLVSAGDRVTITCKASQSVSNAVAWYQQKPGQSPKLLIYYASNRYTGVPDRFTGSGYGTDFTFTISTVQAEDLAVYFCQQDYSSPLTFGAGTKLELK | 0.00245 | –
scFv 2D9, purification tag removed by thrombin (scFv, V domains shown, 2D9 kappa chain variable region, as in m5; GGS(GGGGS)3 linker; 2D9 heavy chain variable region, as in m5; Same construct as m5 after thrombin digestion; source: D. melanogaster Schneider 2 (S2) cells, stably transfected, secreted, purified (StrepTrap HP); tag removed with thrombin during complex formation; not shown: Twin Strep-tag, C-terminal, cleaved) VH: QVQLKQSGPGLVQPSQSLSITCTVSGFSLTSYGVHWVRQSPGKGLEWLGVIWSGGSTDYNAAFISRLSISKDNSKSQVFFKMNSLQANDTAIYYCARNSLLDAMDYWGQGTSVTVSS VL: SIVMTQTPKFLLVSAGDRVTITCKASQSVSNAVAWYQQKPGQSPKLLIYYASNRYTGVPDRFTGSGYGTDFTFTISTVQAEDLAVYFCQQDYSSPLTFGAGTKLELK | – | stoichiometry N [3]: 1 scFv per Spike 8 protomer (2:2 complex)
